Results published in patent publication WO2025083273A1 (dated 2025).

T1: human DR3 (TNFRSF25) expressed on cells (human, UniProt Q93038 25-417)
T1 sequence: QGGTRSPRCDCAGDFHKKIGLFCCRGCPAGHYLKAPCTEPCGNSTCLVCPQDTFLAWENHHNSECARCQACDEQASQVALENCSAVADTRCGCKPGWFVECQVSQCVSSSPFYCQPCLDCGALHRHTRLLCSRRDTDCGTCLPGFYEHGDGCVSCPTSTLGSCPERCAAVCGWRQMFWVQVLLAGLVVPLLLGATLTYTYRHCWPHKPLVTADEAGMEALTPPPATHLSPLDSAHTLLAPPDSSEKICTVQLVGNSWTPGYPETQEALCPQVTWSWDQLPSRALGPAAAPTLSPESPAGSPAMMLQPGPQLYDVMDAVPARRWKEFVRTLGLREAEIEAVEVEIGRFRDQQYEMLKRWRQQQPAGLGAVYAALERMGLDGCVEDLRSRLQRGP

T2: DR3-8i (human)
T2 construct: also called purified monomeric DR3-8i antigen protein
T2 chain: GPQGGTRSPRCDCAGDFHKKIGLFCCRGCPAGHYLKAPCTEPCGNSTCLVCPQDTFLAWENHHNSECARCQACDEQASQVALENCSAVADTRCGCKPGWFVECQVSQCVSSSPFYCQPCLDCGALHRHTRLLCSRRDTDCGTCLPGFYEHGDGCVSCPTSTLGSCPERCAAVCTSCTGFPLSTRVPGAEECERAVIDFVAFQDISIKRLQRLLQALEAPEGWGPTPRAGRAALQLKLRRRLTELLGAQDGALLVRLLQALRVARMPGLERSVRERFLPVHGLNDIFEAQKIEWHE


Experiments:
[1] = target: T1, human DR3 (TNFRSF25) expressed on cells; test: cell-based or functional assay
[2] = target: T2, DR3-8i; test: BLI, IgG captured on protein A, DR3-8i in solution; Experiment 2
[3] = target: T2, DR3-8i; test: BLI, IgG captured on protein A, DR3-8i in solution; Experiment 1
[4] = target: T2, DR3-8i; test: BLI, IgG captured on protein A, DR3-8i in solution; Average

Binder | EC50 (pM), DR3 Jurkat reporter [1] [pM] | Signal (FLU) [1] [FLU] | Kd [2] [nM] | Kd [3] [nM] | Kd [4] [nM]
VHg9/VLg11 (antibody, human IgG1, V domains shown, human IgG1) VH: EVQLVESGGGLVKPGGSLRLSCAASGFTFSSYAMSWVRQAPGKGLEWVSTISDGDSYSYFPDSVKDRFTISRDNAKNSLYLQMNSLRAEDTAVYYCARDRIYGSVQYYAMDYWGQGTLVTVSS VL: DIVMTQSPDSLAVSLGERATINCRASESVEFSGTSLMQWYQQKPGQPPKLLIYAASNVESGVPDRFSGSGSGTDFTLTISSLQAEDVAVYYCQQSRKLPYTFGQGTKLEIK | 261 | 3.27e+06 | 0.184 | 0.192 | 0.188
VHg5/mVL (antibody, human IgG1, V domains shown) VH: QVQLQQSGGGLVQAGGSLRLSCAASGFTFTSYAMSWVRQAPGKGLEWVATISDGDSYSYFPDSVKDRFIISRDNAKNSLFLQMNSLRAEDTAVYYCARDRIYGSVQYYAMDYWGRGTLVTVSS VL: DIVLTQSPASLAVSLGQRATISCRASESVEFSGTSLMQWYQQRPGLPPKLLIYAASNVESGVPARFSGSGSGTDFSLNIHPVEEDDIAMYFCQQSRKLPYTFGGGTKLEIN |  | 2.69e+06 |  |  | 
VHg10/VLg1 (antibody, human IgG1, V domains shown) VH: EVQLVESGGGLVQPGGSLRLSCAASGFTFSSYAMSWVRQAPGKGLEWVSTISDGDSYSYFPDSVKDRFTISRDNSKNTLYLQMNSLRAEDTAVYYCARDRIYGSVQYYAMDYWGQGTLVTVSS VL: DVVMTQSPDSLAVSLGERATINCRASESVEFSGTSLMQWYQQKPGQPPKLLIYAASNVESGVPDRFSGSGSGTDFTLTISSLQAEDVVVYYCQQSRKLPYTFGGGTKVEIK |  | 2.54e+06 |  |  | 
VHg2/VLg5 (antibody, human IgG1, V domains shown) VH: QMQLVQSGGGLVKPGGSLRLSCAASGFTFSSYAMSWIRQAPGKGLEWVSTISDGDSYSYFPDSVKDRFTISRDNAKNSLYLQMNSLRAEDTAVYYCTRDRIYGSVQYYAMDYWGRGTLVTVSS VL: EIVLTQSPGTLSLSPGERGTLSCRASESVEFSGTSLMQWYQQKPGQAPRLLIYAASNVESGIPDRFSGSGSETDFTLTISRLEPEDLAVYYCQQSRKLPYTFGQGTRLEIK |  | 2.52e+06 |  |  | 
VHg9/mVL (antibody, human IgG1, V domains shown) VH: EVQLVESGGGLVKPGGSLRLSCAASGFTFSSYAMSWVRQAPGKGLEWVSTISDGDSYSYFPDSVKDRFTISRDNAKNSLYLQMNSLRAEDTAVYYCARDRIYGSVQYYAMDYWGQGTLVTVSS VL: DIVLTQSPASLAVSLGQRATISCRASESVEFSGTSLMQWYQQRPGLPPKLLIYAASNVESGVPARFSGSGSGTDFSLNIHPVEEDDIAMYFCQQSRKLPYTFGGGTKLEIN |  | 3.35e+06 |  |  | 
VHg3/VLg1 (antibody, human IgG1, V domains shown) VH: EVQLVQSGGGLVKPGGSLRLSCAASGFKFSSYAMSWVRQAPGKGLEWLSTISDGDSYSYFPDSVKDRFIISRDNAKNSLYLQMNSLRVEDTGVYYCARDRIYGSVQYYAMDYWGQGTLVTVSS VL: DVVMTQSPDSLAVSLGERATINCRASESVEFSGTSLMQWYQQKPGQPPKLLIYAASNVESGVPDRFSGSGSGTDFTLTISSLQAEDVVVYYCQQSRKLPYTFGGGTKVEIK |  | 2.46e+06 |  |  | 
VHg3/VLg5 (antibody, human IgG1, V domains shown) VH: EVQLVQSGGGLVKPGGSLRLSCAASGFKFSSYAMSWVRQAPGKGLEWLSTISDGDSYSYFPDSVKDRFIISRDNAKNSLYLQMNSLRVEDTGVYYCARDRIYGSVQYYAMDYWGQGTLVTVSS VL: EIVLTQSPGTLSLSPGERGTLSCRASESVEFSGTSLMQWYQQKPGQAPRLLIYAASNVESGIPDRFSGSGSETDFTLTISRLEPEDLAVYYCQQSRKLPYTFGQGTRLEIK |  | 2.43e+06 |  |  | 
VHg9/VLg1 (antibody, human IgG1, V domains shown) VH: EVQLVESGGGLVKPGGSLRLSCAASGFTFSSYAMSWVRQAPGKGLEWVSTISDGDSYSYFPDSVKDRFTISRDNAKNSLYLQMNSLRAEDTAVYYCARDRIYGSVQYYAMDYWGQGTLVTVSS VL: DVVMTQSPDSLAVSLGERATINCRASESVEFSGTSLMQWYQQKPGQPPKLLIYAASNVESGVPDRFSGSGSGTDFTLTISSLQAEDVVVYYCQQSRKLPYTFGGGTKVEIK |  | 2.23e+06 |  |  | 
VHg6/mVL (antibody, human IgG1, V domains shown) VH: QVQLQQSGGGLVQPGGSLRLSCAASGFTFSSYAMSWVRQAPGKGLEWVATISDGDSYSYFPDSVKDRFTISRDNARNSLYLQMNSLRAEDTAVYYCARDRIYGSVQYYAMDYWGRGTLVTVSS VL: DIVLTQSPASLAVSLGQRATISCRASESVEFSGTSLMQWYQQRPGLPPKLLIYAASNVESGVPARFSGSGSGTDFSLNIHPVEEDDIAMYFCQQSRKLPYTFGGGTKLEIN |  | 2.6e+06 |  |  | 
VHg9/VLg6 (antibody, human IgG1, V domains shown) VH: EVQLVESGGGLVKPGGSLRLSCAASGFTFSSYAMSWVRQAPGKGLEWVSTISDGDSYSYFPDSVKDRFTISRDNAKNSLYLQMNSLRAEDTAVYYCARDRIYGSVQYYAMDYWGQGTLVTVSS VL: DVVMTQSPPSLPVTPGEPASISCRASESVEFSGTSLMQWYLQKPGQSPQVLIYAASNVESGVPDRFSGSGSGTDFTLKISRVEAEDVGVYYCQQSRKLPYTFGQGTRLEIK |  | 2.32e+06 |  |  | 
VHg5/VLg5 (antibody, human IgG1, V domains shown) VH: QVQLQQSGGGLVQAGGSLRLSCAASGFTFTSYAMSWVRQAPGKGLEWVATISDGDSYSYFPDSVKDRFIISRDNAKNSLFLQMNSLRAEDTAVYYCARDRIYGSVQYYAMDYWGRGTLVTVSS VL: EIVLTQSPGTLSLSPGERGTLSCRASESVEFSGTSLMQWYQQKPGQAPRLLIYAASNVESGIPDRFSGSGSETDFTLTISRLEPEDLAVYYCQQSRKLPYTFGQGTRLEIK |  | 2.42e+06 |  |  | 
VHg9/VLg13 (antibody, human IgG1, V domains shown) VH: EVQLVESGGGLVKPGGSLRLSCAASGFTFSSYAMSWVRQAPGKGLEWVSTISDGDSYSYFPDSVKDRFTISRDNAKNSLYLQMNSLRAEDTAVYYCARDRIYGSVQYYAMDYWGQGTLVTVSS VL: DIQMTQSPSSLSASVGDRVTITCRASESVEFSGTSLMQWYQQKPGKAPKLLIYAASNVESGVPSRFSGSGSGTDFTFTISSLQPEDIATYYCQQSRKLPYTFGQGTKLEIK |  | 3.33e+06 |  |  | 
VHg1/mVL (antibody, human IgG1, V domains shown) VH: QVQLVQSGGGLVQPGGSLRLSCAASGFTFSSYAMSWVRQAPGKGLEWVSTISDGDSYSYFPDSVKDRFTISRDNSKNTLYLQMNSLRAEDTSVYYCARDRIYGSVQYYAMDYWGQGTLVTVSS VL: DIVLTQSPASLAVSLGQRATISCRASESVEFSGTSLMQWYQQRPGLPPKLLIYAASNVESGVPARFSGSGSGTDFSLNIHPVEEDDIAMYFCQQSRKLPYTFGGGTKLEIN |  | 2.43e+06 |  |  | 
VHg2/mVL (antibody, human IgG1, V domains shown) VH: QMQLVQSGGGLVKPGGSLRLSCAASGFTFSSYAMSWIRQAPGKGLEWVSTISDGDSYSYFPDSVKDRFTISRDNAKNSLYLQMNSLRAEDTAVYYCTRDRIYGSVQYYAMDYWGRGTLVTVSS VL: DIVLTQSPASLAVSLGQRATISCRASESVEFSGTSLMQWYQQRPGLPPKLLIYAASNVESGVPARFSGSGSGTDFSLNIHPVEEDDIAMYFCQQSRKLPYTFGGGTKLEIN |  | 2.57e+06 |  |  | 
VHg1/VLg5 (antibody, human IgG1, V domains shown) VH: QVQLVQSGGGLVQPGGSLRLSCAASGFTFSSYAMSWVRQAPGKGLEWVSTISDGDSYSYFPDSVKDRFTISRDNSKNTLYLQMNSLRAEDTSVYYCARDRIYGSVQYYAMDYWGQGTLVTVSS VL: EIVLTQSPGTLSLSPGERGTLSCRASESVEFSGTSLMQWYQQKPGQAPRLLIYAASNVESGIPDRFSGSGSETDFTLTISRLEPEDLAVYYCQQSRKLPYTFGQGTRLEIK |  | 1.99e+06 |  |  | 
VHg6/VLg4 (antibody, human IgG1, V domains shown, human IgG1) VH: QVQLQQSGGGLVQPGGSLRLSCAASGFTFSSYAMSWVRQAPGKGLEWVATISDGDSYSYFPDSVKDRFTISRDNARNSLYLQMNSLRAEDTAVYYCARDRIYGSVQYYAMDYWGRGTLVTVSS VL: DVVMTQSPDSLAVSLGERATISCRASESVEFSGTSLMQWYQQKPRQPLKLLIYAASNVESGVPDRFSGSGSGTDFTLTISSLQAEDVAVYYCQQSRKLPYTFGQGTRLEIK | 115 | 2.68e+06 | 0.146 | 0.25 | 0.198
VHg2/VLg11 (antibody, human IgG1, V domains shown, human IgG1) VH: QMQLVQSGGGLVKPGGSLRLSCAASGFTFSSYAMSWIRQAPGKGLEWVSTISDGDSYSYFPDSVKDRFTISRDNAKNSLYLQMNSLRAEDTAVYYCTRDRIYGSVQYYAMDYWGRGTLVTVSS VL: DIVMTQSPDSLAVSLGERATINCRASESVEFSGTSLMQWYQQKPGQPPKLLIYAASNVESGVPDRFSGSGSGTDFTLTISSLQAEDVAVYYCQQSRKLPYTFGQGTKLEIK | 136 | 2.9e+06 | 0.0435 | 0.0636 | 0.0536
VHg3/VLg11 (antibody, human IgG1, V domains shown, human IgG1) VH: EVQLVQSGGGLVKPGGSLRLSCAASGFKFSSYAMSWVRQAPGKGLEWLSTISDGDSYSYFPDSVKDRFIISRDNAKNSLYLQMNSLRVEDTGVYYCARDRIYGSVQYYAMDYWGQGTLVTVSS VL: DIVMTQSPDSLAVSLGERATINCRASESVEFSGTSLMQWYQQKPGQPPKLLIYAASNVESGVPDRFSGSGSGTDFTLTISSLQAEDVAVYYCQQSRKLPYTFGQGTKLEIK | 1230 | 2.38e+06 | 0.618 | 0.364 | 0.491
